Source: PMC5584245 (Oncotarget, 2017)

T1: membrane CD24 on hepatoma cells (Huh-7, BEL-7402) (Homo sapiens, UniProt P25063)
T1 construct: cluster of differentiation 24 (CD24), GPI-linked membrane protein, endogenous on human hepatoma cell lines; also called CD24 receptors; CD24 ligand; source: endogenous, on Huh-7 and BEL-7402 cells
T1 chain: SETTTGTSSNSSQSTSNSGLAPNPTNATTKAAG

T2: CD24-GST (Homo sapiens, UniProt P25063)
T2 construct: cluster of differentiation 24 (CD24) fused to GST; also called GST-CD24
T2 chain: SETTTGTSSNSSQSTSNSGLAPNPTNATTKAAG


Legend:
[1] = molecular target: T1, membrane CD24 on hepatoma cells (Huh-7, …); test: flow cytometry on cells; antibody on Huh-7 and BEL-7402 hepatoma cells, also after RNA interference against CD24; procedure as in ref. 12; conditions: one partner purified
CD24-GST = molecular target: T2, CD24-GST; test: SPR; Biacore X100; CD24-GST flowed over immobilized antibody; 1:1 binding model; procedure as in ref. 45; conditions: both partners purified

binding rate to BEL-7402 cells [1] [%]	binding rate to Huh-7 cells [1] [%]	Kd (CD24-GST) [pM]	koff (CD24-GST) [s⁻¹]	kon (CD24-GST) [M⁻¹ s⁻¹]	Binder
79.3	88.4	191	0.000336	1.76e+06	chimeric antibody cG7 (antibody, V domains shown, murine VH of G7mAb (G7mAb-VH); human heavy-chain constant region of the chimeric antibody; murine VL of G7mAb (G7mAb-VL); human light-chain constant region of the chimeric antibody; Chimeric: murine G7mAb variable domains on human constant regions; The vectors of the laboratory hold IgG1 H and L chains and the constant region of the humanized antibodies is from Cetuximab; also called parental …) VH: QVKLEESGGGLVQPGGSLKISCAASGFDFSRYWMSWVRQAPGKGLEWIGEINPDSSTINYTPSLRDKFIISRDNAKNTLYLQMSKVRYEDTSLYYCARQGDYWGQGTSVTVSS VL: not shown
–	–	570	–	–	hG7-BM3 (hVH-B2, hVL-B1) (antibody, V domains shown) VH: QVQLVESGGGVVQPGRSLRLSCAASGFTFSRYWMSWVRQAPGKGLEWIAEINPDSSTINYTPSLRDKFTISRDNSKNTLYLQMSSLRAEDTAVYYCARQGDYWGQGTLVTVSS VL: DIVMTQTPLSLSVTPGQPASISCKSSQSLLHSDGKTYLNWYLQKPGQSPQRLIYLVSKLDSGVPDRFSGSGSGTDFTLKISRVEAEDVGVYYCWQGAHFPYTFGQGTKLEIK
